How the values were obtained:
[1] = molecular target: recombinant soluble FcγRIIa-Arg131 (human) (UniProt P12318); experiment: BLI (Octet); anti-TNP IgG captured on TNP-BSA-biotin, rsFcγR in solution; global 1:1 Langmuir fit
[2] = molecular target: recombinant soluble FcγRIIb (human) (UniProt P31994); experiment: as above
[3] = molecular target: human FcγRIIb expressed on the cell surface (human) (UniProt P31994); experiment: cell-based or functional assay
Chain of human FcγRIIb expressed on the cell surface (human) (P31994 43-310): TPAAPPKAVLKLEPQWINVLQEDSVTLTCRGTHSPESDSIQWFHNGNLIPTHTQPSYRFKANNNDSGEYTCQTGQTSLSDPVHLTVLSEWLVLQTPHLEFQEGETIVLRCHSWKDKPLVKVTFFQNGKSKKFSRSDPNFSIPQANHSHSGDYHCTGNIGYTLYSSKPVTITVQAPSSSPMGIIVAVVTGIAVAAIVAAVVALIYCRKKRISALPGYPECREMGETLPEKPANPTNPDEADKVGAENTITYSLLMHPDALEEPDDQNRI

Chain of recombinant soluble FcγRIIb (human) (P31994 43-217): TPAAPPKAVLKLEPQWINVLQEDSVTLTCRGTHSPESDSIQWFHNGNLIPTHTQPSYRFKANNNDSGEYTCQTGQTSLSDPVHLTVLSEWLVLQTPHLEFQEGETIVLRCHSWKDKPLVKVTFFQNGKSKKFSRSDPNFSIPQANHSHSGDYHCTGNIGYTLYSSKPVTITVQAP
Chain of recombinant soluble FcγRIIa-Arg131 (human) (P12318 34-217 H167R): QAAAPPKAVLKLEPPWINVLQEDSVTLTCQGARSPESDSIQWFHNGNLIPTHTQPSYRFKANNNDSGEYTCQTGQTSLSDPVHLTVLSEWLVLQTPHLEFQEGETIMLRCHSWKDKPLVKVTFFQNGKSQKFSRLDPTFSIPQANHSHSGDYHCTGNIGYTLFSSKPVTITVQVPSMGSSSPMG

Substance	Ka [1] [M⁻¹]	Ka [2] [M⁻¹]	% inhibition of basophil activation (washed blood BAT) [3] [%]	% inhibition of basophil activation (whole blood BAT) [3] [%]
chimeric anti-TNP human IgG1-SELF (antibody)	3.49e+08	7.4e+07	–	–
chimeric anti-TNP human IgG2-FEGG (antibody)	–	400000	–	–
chimeric anti-TNP human IgG4-FEGG (antibody)	–	–	42	8
chimeric anti-TNP human IgG4-LLGG (antibody)	–	–	–	13

Source: patent publication US20240018269A1
